This is an account of results in paper doi:10.1101/2022.01.11.475947.

The term stoichiometry N denotes the number of molecules, sites or subunits per partner or assembly.

The test concerns the target prefusion-stabilized SARS-CoV-2 spike protein (S-clamp) (SARS-CoV-2). In words: SEC. On the technique in general: In gel filtration, larger molecules generally elute earlier.

Substance “prefusion-stabilized SARS-CoV-2 spike protein (S-clamp)” yielded a stoichiometry N of 3.
